{"source": "patent US6774099B1", "about": "“Dishwashing detergent compositions containing mixtures or crystallinity-disrupted surfactants” (The Procter & Gamble Company, priority 1999, dated 2004)", "origin": "cited, not measured here", "settings": "enzymes compared at 0.075 to 2.5 mg protein per liter", "data": [{"molecule": "D96L: D96L lipolytic enzyme variant of the native lipase derived from Humicola lanuginosa (protein, UniProt O59952 23-291, looked up, variant D96L) Lipase: EVSQDLFNQFNLFAQYSAAAYCGKNNDAPAGTNITCTGNACPEVEKADATFLYSFEDSGVGDVTGFLALDNTNKLIVLSFRGSRSIENWIGNLNFLLKEINDICSGCRGHDGFTSSWRSVADTLRQKVEDAVREHPDYRVVFTGHSLGGALATVAGADLRGNGYDIDVFSYGAPRVGNRAFAEFLTVQTGGTLYRITHTNDIVPRLPPREFGYSHSSPEYWIKSGTLVPVTRNDIVKIEGIDATGGNNQPNIPDIPAHLWYFGLIGTCL", "values": [{"measurement": "lard stain removal efficiency, factor over the wild-type lipase", "value": 4.4}]}]}
